# Assay results taken from patent EP4700040A1, “PEPTIDE AND LUMINESCENT COMPLEX CONTAINING SAME” (Shenzhen Loggene Life Science & Technology Co., Ltd., priority 2023, dated 2024).
# Target: Large subunit-rSCFV5 fusion protein
# Test: cell-based or functional assay
# Large subunit-rSCFV5 fusion protein, sequence (chain, as listed by the source): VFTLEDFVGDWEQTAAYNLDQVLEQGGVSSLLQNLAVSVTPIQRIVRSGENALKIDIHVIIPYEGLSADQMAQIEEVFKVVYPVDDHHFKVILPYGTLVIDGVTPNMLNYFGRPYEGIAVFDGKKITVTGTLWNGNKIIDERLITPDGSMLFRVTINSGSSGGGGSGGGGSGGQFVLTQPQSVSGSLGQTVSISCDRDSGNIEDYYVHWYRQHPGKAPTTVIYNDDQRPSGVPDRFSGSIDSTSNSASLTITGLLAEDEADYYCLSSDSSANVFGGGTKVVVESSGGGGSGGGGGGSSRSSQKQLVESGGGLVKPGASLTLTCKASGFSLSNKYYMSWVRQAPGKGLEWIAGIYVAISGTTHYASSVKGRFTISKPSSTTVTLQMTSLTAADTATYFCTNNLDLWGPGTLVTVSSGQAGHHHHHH
"RLU, PCT+ [RLU]","RLU, PCT- [RLU]",Signal-to-noise ratio,Signal-to-noise ratio at 1000 pg/ml,normalised luminescence at PCT 0.0 pg/ml,normalised luminescence at PCT 1 pg/ml,normalised luminescence at PCT 3 pg/ml,normalised luminescence at PCT 10 pg/ml,normalised luminescence at PCT 30 pg/ml,normalised luminescence at PCT 100 pg/ml,Binder
30600,463,65.1,,,,,,,,"VDGWRLHEKIS (peptide, part only; not given: rSCFV18 scFv part, part only) [rSCFV18-small subunit mutant fusion protein RA141]"
102000,4320,22.6,,,,,,,,"VEGYRLFNRVS (peptide, part only; not given: rSCFV18 scFv part, part only) [rSCFV18-small subunit mutant fusion protein RB027]"
3990,302,12.2,,,,,,,,"VEGYRLFNKEW (peptide, part only; not given: rSCFV18 scFv part, part only) [rSCFV18-small subunit mutant fusion protein RB284]"
4770,685,7,5.8,5000,5130,5230,5190,5650,7130,"VDGYRLFEKVS (peptide, part only; not given: rSCFV18 scFv part, part only) [rSCFV18-small subunit mutant fusion protein RC-263]"
27200,590,45.1,,,,,,,,"VEGYRLFDRKW (peptide, part only; not given: rSCFV18 scFv part, part only) [rSCFV18-small subunit mutant fusion protein RB186]"
9280,1230,7.5,,,,,,,,"VSGWRIFDKKS (peptide, part only; not given: rSCFV18 scFv part, part only) [rSCFV18-small subunit mutant fusion protein RC-124]"
81100,2140,36.9,,,,,,,,"VSGWRIHEKIS (peptide, part only; not given: rSCFV18 scFv part, part only) [rSCFV18-small subunit mutant fusion protein RA120]"
9040,1520,5.9,,,,,,,,"VNGWRIFDKKS (peptide, part only; not given: rSCFV18 scFv part, part only) [rSCFV18-small subunit mutant fusion protein RC-242]"
41400,1090,36.9,,,,,,,,"VEGYRLFEKVW (peptide, part only; not given: rSCFV18 scFv part, part only) [rSCFV18-small subunit mutant fusion protein RB172]"
16300,3000,5.4,,,,,,,,"VSGYRLFDRKS (peptide, part only; not given: rSCFV18 scFv part, part only) [rSCFV18-small subunit mutant fusion protein RC-228]"
17900,387,45.2,,,,,,,,"VEGYRLHEKIS (peptide, part only; not given: rSCFV18 scFv part, part only) [rSCFV18-small subunit mutant fusion protein RA128]"
5770,593,9.7,,,,,,,,"VEGYRLFEKVS (peptide, part only; not given: rSCFV18 scFv part, part only) [rSCFV18-small subunit mutant fusion protein RC-042]"
18300,3180,5.8,,,,,,,,"VEGWRLFDRKS (peptide, part only; not given: rSCFV18 scFv part, part only) [rSCFV18-small subunit mutant fusion protein RC-232]"
39200,1100,34.7,,,,,,,,"VEGYRLFNRKW (peptide, part only; not given: rSCFV18 scFv part, part only) [rSCFV18-small subunit mutant fusion protein RB223]"
37200,906,40,,,,,,,,"VEGYRLFKREL (peptide, part only; not given: rSCFV18 scFv part, part only) [rSCFV18-small subunit mutant fusion protein RB152]"
7240,921,7.9,6.3,5000,4940,4980,5160,5700,7490,"VEGYRLFDRKS (peptide, part only; not given: rSCFV18 scFv part, part only) [rSCFV18-small subunit mutant fusion protein RC-218]"
8510,820,10.4,,,,,,,,"VSGYRLFDRKW (peptide, part only; not given: rSCFV18 scFv part, part only) [rSCFV18-small subunit mutant fusion protein RC-033]"
6210,1180,5.3,,,,,,,,"VSGYRIFEKKW (peptide, part only; not given: rSCFV18 scFv part, part only) [rSCFV18-small subunit mutant fusion protein RC-113]"
79100,3590,21,,,,,,,,"VEGYRLFEKKL (peptide, part only; not given: rSCFV18 scFv part, part only) [rSCFV18-small subunit mutant fusion protein RB149]"
11800,2500,4.7,,,,,,,,"VSGWRIFDRKS (peptide, part only; not given: rSCFV18 scFv part, part only) [rSCFV18-small subunit mutant fusion protein RC-041]"
26200,658,38.8,,,,,,,,"VEGYRLFDRVW (peptide, part only; not given: rSCFV18 scFv part, part only) [rSCFV18-small subunit mutant fusion protein RB128]"
10800,2190,5,,,,,,,,"VEGWRLFDRVS (peptide, part only; not given: rSCFV18 scFv part, part only) [rSCFV18-small subunit mutant fusion protein RC-237]"
31900,465,67.7,31.1,,,,,,,"VEGYRLFDKKW (peptide, part only; not given: rSCFV18 scFv part, part only) [rSCFV18-small subunit mutant fusion protein RB239]"
10400,1300,8,,,,,,,,"VSGYRIFDKKS (peptide, part only; not given: rSCFV18 scFv part, part only) [rSCFV18-small subunit mutant fusion protein RC-044]"
55400,2600,20.2,,,,,,,,"VEGYRLFNRVG (peptide, part only; not given: rSCFV18 scFv part, part only) [rSCFV18-small subunit mutant fusion protein RB122]"
8200,808,10.1,,,,,,,,"VEGYRLFERKS (peptide, part only; not given: rSCFV18 scFv part, part only) [rSCFV18-small subunit mutant fusion protein RC-145]"
5000,438,11.4,5.5,5000,4670,4640,4830,5410,6700,"VEGYRIFEKKW (peptide, part only; not given: rSCFV18 scFv part, part only) [rSCFV18-small subunit mutant fusion protein RC-286]"
7220,1620,4.5,,,,,,,,"VSGYRLFDKKW (peptide, part only; not given: rSCFV18 scFv part, part only) [rSCFV18-small subunit mutant fusion protein RC-261]"
53900,1630,32.1,,,,,,,,"VEGYRLFERVL (peptide, part only; not given: rSCFV18 scFv part, part only) [rSCFV18-small subunit mutant fusion protein RB150]"
12000,2070,5.8,,,,,,,,"VSGYRIFEKKS (peptide, part only; not given: rSCFV18 scFv part, part only) [rSCFV18-small subunit mutant fusion protein RC-129]"

# Same assay, conditions: not given
normalised luminescence at PCT 1000 pg/ml,normalised luminescence at PCT 10000 pg/ml,normalised luminescence at PCT 100000 pg/ml,normalised luminescence at PCT 250000 pg/ml,"complementary activity, luminescence at 3 min [RLU]","complementary activity, luminescence at 6 min [RLU]",luminescence at PCT 0 pg/ml,luminescence at PCT 1.37 pg/ml,luminescence at PCT 4.12 pg/ml,luminescence at PCT 12.35 pg/ml,Binder
28800,241000,1.56e+06,2.23e+06,,,,,,,"VDGYRLFEKVS (peptide, part only; not given: rSCFV18 scFv part, part only) [rSCFV18-small subunit mutant fusion protein RC-263]"
,,,,3390,3220,,,,,"AEGYRLFDRKS (peptide, part only; not given: scFv part; template fusion not stated, part only) [small subunit mutant fusion protein RD-086]"
31600,266000,1.76e+06,2.44e+06,,,,,,,"VEGYRLFDRKS (peptide, part only; not given: rSCFV18 scFv part, part only) [rSCFV18-small subunit mutant fusion protein RC-218]"
,,,,221,52,,,,,"AEPYRIFDRKS (peptide, part only; not given: scFv part; template fusion not stated, part only) [small subunit mutant fusion protein RD-099]"
,,,,,,288,301,332,407,"VEGYRLFDKKW (peptide, part only; not given: rSCFV18 scFv part, part only) [rSCFV18-small subunit mutant fusion protein RB239]"
27600,236000,1.44e+06,2.01e+06,,,,,,,"VEGYRIFEKKW (peptide, part only; not given: rSCFV18 scFv part, part only) [rSCFV18-small subunit mutant fusion protein RC-286]"
,,,,4900,4540,,,,,"IEGYRLFDRKS (peptide, part only; not given: scFv part; template fusion not stated, part only) [small subunit mutant fusion protein RD-092]"

# Same assay, conditions: not given
luminescence at PCT 37.04 pg/ml,luminescence at PCT 111.1 pg/ml,luminescence at PCT 333.3 pg/ml,luminescence at PCT 1000 pg/ml,Binder
590,1320,3360,8950,"VEGYRLFDKKW (peptide, part only; not given: rSCFV18 scFv part, part only) [rSCFV18-small subunit mutant fusion protein RB239]"

# Target: Large subunit-rSCFV5 fusion protein
# Test: cell-based or functional assay
# Remark: another data set of the same source
Signal-to-noise ratio at 1000 pg/ml,normalised luminescence at PCT 0 pg/ml,normalised luminescence at PCT 1.1 pg/ml,normalised luminescence at PCT 3.3 pg/ml,normalised luminescence at PCT 10 pg/ml,normalised luminescence at PCT 100 pg/ml,normalised luminescence at PCT 1000 pg/ml,normalised luminescence at PCT 10000 pg/ml,normalised luminescence at PCT 100000 pg/ml,Binder
8.6,5000,4930,5410,6020,8680,42800,333000,1.4e+06,"VDGWRLHEKIS (peptide, part only; not given: rSCFV18 scFv part, part only) [rSCFV18-small subunit mutant fusion protein RA141]"
4.9,5000,5090,5290,5530,7040,24700,188000,862000,"VEGYRLFNKEW (peptide, part only; not given: rSCFV18 scFv part, part only) [rSCFV18-small subunit mutant fusion protein RB284]"
18,5000,4900,5260,5860,13400,90100,695000,2e+06,"VSGWRIHEKIS (peptide, part only; not given: rSCFV18 scFv part, part only) [rSCFV18-small subunit mutant fusion protein RA120]"
11.5,5000,5530,5620,5990,11000,57600,466000,2.17e+06,"VEGYRLFDKKW (peptide, part only; not given: rSCFV18 scFv part, part only) [rSCFV18-small subunit mutant fusion protein RB239]"
